The values that follow come from patent US20180335433A1 (LA JOLLA INSTITUTE FOR ALLERGY AND IMMUNOLOGY, published 2018).

For assay [1], the target named is T1, CD28, endogenous in primary mouse CD4+ T cells (mouse, UniProt P31041 20-218).
T1 construct: whole, on cells; Immunoprecipitated with anti-CD28 mAb from lysates of retrovirally transduced mouse T cells; also called murine CD28
The experiment in a line: anti-CD28 co-IP, stimulated transduced PKCθ-/- T cells (FIG. 4c).

For assay [2], the target named is T2, SH3-inactivated (W97A) Lck (UniProt P06239 2-509, limits assumed).
T2 construct: whole, on cells; also called Lck W97A
T2 sequence (P06239 2-509 W97A limits assumed): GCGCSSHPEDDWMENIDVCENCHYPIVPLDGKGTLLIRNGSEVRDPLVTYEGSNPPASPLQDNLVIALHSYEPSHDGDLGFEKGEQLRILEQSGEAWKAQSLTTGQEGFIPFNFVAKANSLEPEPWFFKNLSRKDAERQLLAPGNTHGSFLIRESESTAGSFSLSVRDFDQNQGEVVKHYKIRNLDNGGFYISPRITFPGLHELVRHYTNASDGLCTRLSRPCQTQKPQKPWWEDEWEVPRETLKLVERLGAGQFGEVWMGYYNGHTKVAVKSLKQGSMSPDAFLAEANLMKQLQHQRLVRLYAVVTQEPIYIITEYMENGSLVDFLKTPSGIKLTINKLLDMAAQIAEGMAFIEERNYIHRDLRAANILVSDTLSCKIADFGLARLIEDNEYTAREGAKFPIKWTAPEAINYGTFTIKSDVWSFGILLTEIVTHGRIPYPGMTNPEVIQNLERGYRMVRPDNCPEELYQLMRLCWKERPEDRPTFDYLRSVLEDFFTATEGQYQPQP
The experiment in a line: anti-Myc IP from stimulated JCam1.6 cells reconstituted with Lck W97A, immunoblot for Lck (FIG. 12). Here is the method:
FIG. 12 Interaction between CD28 and the V3 of PKCθ is Lck-dependent. PKCθ-Lck-CD28 association in Lck-deficient (JCam1.6) Jurkat cells cotransfected with Myc-tagged PKCθ−V3 plus WT Lck or its indicated mutants, Transfected cells were stimulated with anti-CD3 and anti-CD28 for 5 min, immunoprecipitated with an anti-Myc Ab, and immunoblotted for Lck and endogenous CD28. Data are from three experiments.

T1 sequence (P31041 20-218): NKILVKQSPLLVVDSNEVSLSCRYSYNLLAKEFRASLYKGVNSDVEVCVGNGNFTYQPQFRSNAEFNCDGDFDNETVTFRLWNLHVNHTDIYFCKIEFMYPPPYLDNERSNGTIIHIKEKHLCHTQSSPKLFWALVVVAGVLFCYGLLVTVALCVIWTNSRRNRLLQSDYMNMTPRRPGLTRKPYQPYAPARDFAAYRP

B1: PKCθ P330/1/4/6A (4P-A; all four Pro residues of the PR motif mutated to alanine) (enzyme)
chain: MSPFLRIGLSNFDCGSCQSCQGEAVNPYCAVLVKEYVESENGQMYIQKKPTMYPPWDSTFDAHINKGRVMQIIVKGKNVDLISETTVELYSLAERCRKNNGKTEIWLELKPQGRMLMNARYFLEMSDTKDMNEFETEGFFALHQRRGAIKQAKVHHVKCHEFTATFFPQPTFCSVCHEFVWGLNKQGYQCRQCNAAIHKKCIDKVIAKCTGSAINSRETMFHKERFKIDMPHRFKVYNYKSPTFCEHCGTLLWGLARQGLKCDACGMNVHHRCQTKVANLCGINQKLMAEALAMIESTQQARCLRDTEQIFREGPVEIGLPCSIKNEARAACLATAGKREPQGISWESPLDEVDKMCHLPEPELNKERPSLQIKLKIEDFILHKMLGKGSFGKVFLAEFKKTNQFFAIKALKKDVVLMDDDVECTMVEKRVLSLAWEHPFLTHMFCTFQTKENLFFVMEYLNGGDLMYHIQSCHKFDLSRATFYAAEIILGLQFLHSKGIVYRDLKLDNILLDKDGHIKIADFGMCKENMLGDAKTNTFCGTPDYIAPEILLGQKYNHSVDWWSFGVLLYEMLIGQSPFHGQDEEELFHSIRMDNPFYPRWLEKEAKDLLVKLFVREPEKRLGVRGDIRQHPLFREINWEELERKEIDPPFRPKVKSPFDCSNFDKEFLNEKPRLSFADRALINSMDQNMFRNFSFMNPGMERLIS
In the case of B1, in assay [1], the binding result is listed as “no binding”.

B2: Myc-tagged PKCθ V3 domain (aa 282-379 of human PKCθ, N-terminal Myc tag) (other)
chain: GINQKLMAEALAMIESTQQARCLRDTEQIFREGPVEIGLPCSIKNEARPPCLPTPGKREPQGISWESPLDEVDKMCHLPEPELNKERPSLQIKLKIED
notes: also called Myc-tagged V3; isolated V3 domain; not shown: N-terminal Myc tag of the pMIG vector
As to B2, the binding result in assay [2] is “no binding”.
